Measured values published in patent US20190241662A1 (ADAGENE, published 2019).

T1: human CD95 on HEK293F cells (human, UniProt P25445 26-335)
T1 construct: whole, on cells
T1 sequence (looked up): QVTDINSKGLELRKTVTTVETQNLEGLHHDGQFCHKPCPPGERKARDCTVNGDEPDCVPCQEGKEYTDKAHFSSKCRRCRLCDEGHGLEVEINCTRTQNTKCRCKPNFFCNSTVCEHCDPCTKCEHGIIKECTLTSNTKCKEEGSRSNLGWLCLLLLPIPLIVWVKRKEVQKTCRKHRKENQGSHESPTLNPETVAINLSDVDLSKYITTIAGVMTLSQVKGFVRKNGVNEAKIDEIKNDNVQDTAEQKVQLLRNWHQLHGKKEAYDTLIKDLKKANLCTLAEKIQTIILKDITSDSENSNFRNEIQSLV

T2: human TNFR1 on HEK293F cells (human, UniProt P19438 30-455)
T2 construct: whole, on cells; also called CD120a
T2 sequence (looked up): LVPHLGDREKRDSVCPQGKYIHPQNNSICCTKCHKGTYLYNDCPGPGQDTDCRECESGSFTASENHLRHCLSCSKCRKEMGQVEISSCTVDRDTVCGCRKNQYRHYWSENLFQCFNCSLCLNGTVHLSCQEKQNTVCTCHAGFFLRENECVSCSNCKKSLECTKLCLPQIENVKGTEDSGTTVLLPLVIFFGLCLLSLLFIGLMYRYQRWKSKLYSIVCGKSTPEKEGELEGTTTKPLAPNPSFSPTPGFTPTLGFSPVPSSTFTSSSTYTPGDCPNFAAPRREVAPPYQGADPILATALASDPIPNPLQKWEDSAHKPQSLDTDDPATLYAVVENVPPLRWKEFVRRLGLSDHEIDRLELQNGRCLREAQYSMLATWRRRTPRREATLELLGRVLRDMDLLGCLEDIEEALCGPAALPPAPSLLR

T3: human B7H3 on HEK293F cells (human, UniProt Q5ZPR3 29-534)
T3 construct: whole, on cells
T3 sequence (looked up): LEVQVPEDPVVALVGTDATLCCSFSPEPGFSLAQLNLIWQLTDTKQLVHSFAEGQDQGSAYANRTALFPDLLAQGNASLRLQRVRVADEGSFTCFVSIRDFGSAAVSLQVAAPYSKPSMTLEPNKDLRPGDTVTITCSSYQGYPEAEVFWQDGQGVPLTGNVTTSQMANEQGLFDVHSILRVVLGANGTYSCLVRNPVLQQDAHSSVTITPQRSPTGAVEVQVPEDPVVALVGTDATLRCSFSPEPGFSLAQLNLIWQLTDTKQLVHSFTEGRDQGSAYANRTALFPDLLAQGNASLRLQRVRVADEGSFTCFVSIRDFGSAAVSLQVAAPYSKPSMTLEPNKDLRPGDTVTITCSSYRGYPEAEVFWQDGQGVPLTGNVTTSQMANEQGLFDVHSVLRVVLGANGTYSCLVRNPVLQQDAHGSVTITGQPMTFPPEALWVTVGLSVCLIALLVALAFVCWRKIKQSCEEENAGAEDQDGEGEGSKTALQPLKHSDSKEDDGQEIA

B1: TY21591 (antibody, V domains shown)
VH: EVQLVESGGGLVQPGGSLRLSCAASGFSLSTGGVAVSWIRQAPGKGLEWIGEIYHSGSTYYSPSLKSRVTISRDNSKNTLYLQLNSLRAEDTAVYYCARRIATATYFDYWGQGTLVTVSS
VL: DIQLTQSPSSLSASVGDRVTITCRASQTVFSRYLAWYQQKPGKAPKLLIYDASNRATGIPSRFSGSGSGTDFTLTISSLQPEDFATYYCQQSYYWPPWTFGQGTKVEIK
notes: human IgG1 (hIgG1) from Fab hit B15756
B2: TY21687 (antibody, V domains shown)
VH: EVQLVESGGGLVQPGGSLRLSCAASGFTFSGYAIHWVRQAPGKGLEWIGIISPSGGGTKYAQKFQGRVTISRDNSKNTLYLQLNSLRAEDTAVYYCARHPFAYWGQGTLVTVSS
VL: DIQLTQSPSSLSASVGDRVTITCRASQSVDFYGISFLDWYQQKPGKAPKLLIYDASNRATGIPSRFSGSGSGTDFTLTISSLQPEDFATYYCQQYVSSPPEYTFGQGTKVEIK
notes: human IgG1 (hIgG1) from Fab hit B15700

What was measured:
Assay in all cases: flow cytometry, transfected HEK293F cells, 100 nM antibody [Cont.]
[1] = molecular target: T1, human CD95 on HEK293F cells
Description: (§1) Antibody selectivity was next examined. Human CTLA4, PD1, LAG3, Tim3, B7H3, CD95, TNFR1, OX40, CD40, PD-L1, BLTA, VISTA, PDL2, ICOS and B7H4 were transiently overexpressed on the surface of HEK293F cells. Transfected cells were washed in pre-chilled 1×PBSA buffer (1.76 mM KH2PO4, 10.14 mM Na2HPO4.12H2O, 2.68 mM KCl, 136.89 mM NaCl and 1% BSA), then incubated with 100 nM test antibodies for 1 hour on ice. Cells were washed once with staining buffer, and Alexa Fluor® 647 conjugated mouse anti-human FC antibodies were added and incubated for 30 minutes on ice, protected from light. Samples were washed once with staining buffer prior to analysis by flow cytometry.

[2] = molecular target: T2, human TNFR1 on HEK293F cells
Description: as §1

[3] = molecular target: T3, human B7H3 on HEK293F cells
Description: as §1

Binder | % of cells in upper right quadrant (Q2) [1] | Mean [1] | % of cells in upper right quadrant (Q2) [2] | Mean [2] | % of cells in upper right quadrant (Q2) [3]
B1 | 0.22 | 5570 | 0.33 | 6490 | 
B2 |  |  |  |  | 1.29%
